Assay results published in publication PMC4876856.

Target: truncated rabbit TRPV2 (residues 56-560 and 581-721) (rabbit) (UniProt G1SNM3)
Test: cryo-EM structure

Question: With “truncated rabbit TRPV2 (residues 56-560 and 581-721) (from UniProt G1SNM3 56-560; G1SNM3 581-721) (domain or fragment)” as the substance, how does the stoichiometry N read?
Answer: 4
